In US20090192289A1 (Genentech, published 2009):
Where no end group is shown, it is not given here.

T1: GST-Omi PDZ fusion protein (human, UniProt O43464 359-458)
T1 construct: also called GST-hOmiPDZ; hOmi PDZ domain; not shown: glutathione S-transferase (GST) encoded by plasmid pGEX6P-3
T1 sequence: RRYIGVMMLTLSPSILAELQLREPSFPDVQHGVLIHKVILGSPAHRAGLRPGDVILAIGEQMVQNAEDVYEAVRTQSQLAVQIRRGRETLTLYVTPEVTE

B1: PDZ-Opt (peptide)
peptide: Ac-GQYYFV-OH
notes: synthetic peptide, optimized ligand reported previously from a chemically synthesized library; also called GQYYFV
B2: hOmi_c2 (peptide)
peptide: Ac-RFPHFWV-OH
notes: synthetic peptide from libC; also called RFPHFWV
B3: libC phage-displayed peptide SEQ ID NO:29 (peptide)
chain: NQRVWIFWLI
modifications: not fully specified
notes: not shown: M13 gene-8 major coat protein (P8)
B4: libC phage-displayed peptide SEQ ID NO:32 (peptide)
chain: YPTYWTFWWV
modifications: not fully specified
notes: as for B3
B5: libC phage-displayed peptide SEQ ID NO:36 (peptide)
chain: TMSDWLFWWA
modifications: not fully specified (N-terminus)
notes: as for B3
B6: libN phage-displayed peptide WEWIGMEWG (peptide)
chain: WEWIGMEWG
modifications: not fully specified (C-terminus)
notes: 31 siblings; not shown: M13 gene-8 major coat protein (P8)
B7: libC phage-displayed peptide SEQ ID NO:39 (peptide)
chain: RIPFLFFLWA
modifications: not fully specified (N-terminus)
notes: as for B3
B8: libC phage-displayed peptide SEQ ID NO:46 (peptide)
chain: IPLHWIFYLV
modifications: not fully specified (N-terminus)
notes: as for B3
B9: libC phage-displayed peptide KVASWTMFWV (peptide)
chain: KVASWTMFWV
modifications: not fully specified
notes: 42 siblings; not shown: M13 gene-8 major coat protein (P8)
B10: libC phage-displayed peptide SEQ ID NO:27 (peptide)
chain: PGRWGPFFWV
modifications: not fully specified
notes: as for B3
B11: libC phage-displayed peptide SEQ ID NO:42 (peptide)
chain: SLLNWVLYLV
modifications: not fully specified (N-terminus)
notes: as for B3
B12: libN phage-displayed peptide SEQ ID NO:49 (peptide)
chain: SHWWGGWLG
modifications: not fully specified (C-terminus)
notes: 17 siblings; not shown: M13 gene-8 major coat protein (P8)
B13: libN phage-displayed peptide GGFWWGPAG (peptide)
chain: GGFWWGPAG
modifications: not fully specified (C-terminus)
notes: 5 siblings; not shown: M13 gene-8 major coat protein (P8)
B14: libC phage-displayed peptide SEQ ID NO:30 (peptide)
chain: SSFFRFWFV
modifications: not fully specified
notes: as for B3
B15: libC phage-displayed peptide WLDRFPHFWV (peptide)
chain: WLDRFPHFWV
modifications: not fully specified (N-terminus)
notes: 15 siblings; not shown: M13 gene-8 major coat protein (P8)
B16: libC phage-displayed peptide SEQ ID NO:35 (peptide)
chain: SFYILRYFWV
modifications: not fully specified
notes: as for B3
B17: libC phage-displayed peptide SEQ ID NO:41 (peptide)
chain: TGMSWTIWFL
modifications: not fully specified (N-terminus)
notes: as for B3
B18: libC phage-displayed peptide SEQ ID NO:33 (peptide)
chain: LYSIYRFFWA
modifications: not fully specified
notes: as for B3
B19: libC phage-displayed peptide SEQ ID NO:34 (peptide)
chain: FLGFLEFFWI
modifications: not fully specified
notes: as for B3
B20: libN phage-displayed peptide GIAGFWWDG (peptide)
chain: GIAGFWWDG
modifications: not fully specified (C-terminus)
notes: 9 siblings; not shown: M13 gene-8 major coat protein (P8)
B21: libN phage-displayed peptide SEQ ID NO:56 (peptide)
chain: WIAGFWWDG
modifications: not fully specified (C-terminus)
notes: as for B3
B22: libC phage-displayed peptide SEQ ID NO:31 (peptide)
chain: DRLNWLFFWI
modifications: not fully specified
notes: as for B3
B23: libN phage-displayed peptide SEQ ID NO:52 (peptide)
chain: STDYWWGCG
modifications: not fully specified (C-terminus)
notes: as for B3
B24: libN phage-displayed peptide SEQ ID NO:54 (peptide)
chain: SSDYWWGCG
modifications: not fully specified (C-terminus)
notes: as for B3
B25: libN phage-displayed peptide SEQ ID NO:55 (peptide)
chain: GIVWFWWDG
modifications: not fully specified (C-terminus)
notes: as for B3
B26: libN phage-displayed peptide SEQ ID NO:50 (peptide)
chain: ATEFWWGVG
modifications: not fully specified (C-terminus)
notes: 10 siblings; not shown: M13 gene-8 major coat protein (P8)
B27: libC phage-displayed peptide SEQ ID NO:28 (peptide)
chain: DSLLFDFWWA
modifications: not fully specified
notes: as for B3
B28: libC phage-displayed peptide SEQ ID NO:44 (peptide)
chain: TVHSWFLWFV
modifications: not fully specified (N-terminus)
notes: as for B3
B29: libN phage-displayed peptide AGDSWWWGG (peptide)
chain: AGDSWWWGG
modifications: not fully specified (C-terminus)
notes: 4 siblings; not shown: M13 gene-8 major coat protein (P8)
B30: libC phage-displayed peptide SEQ ID NO:38 (peptide)
chain: TRANWLFFWV
modifications: not fully specified (N-terminus)
notes: as for B3
B31: libN phage-displayed peptide SEQ ID NO:51 (peptide)
chain: WGYWWGPGG
modifications: not fully specified (C-terminus)
notes: as for B3
B32: libC phage-displayed peptide SEQ ID NO:40 (peptide)
chain: SKLRLFFMWV
modifications: not fully specified (N-terminus)
notes: as for B3
B33: libN phage-displayed peptide SEQ ID NO:53 (peptide)
chain: GDIVCTWGG
modifications: not fully specified (C-terminus)
notes: as for B3
B34: libN phage-displayed peptide ESLWWGWEG (peptide)
chain: ESLWWGWEG
modifications: not fully specified (C-terminus)
notes: 7 siblings; not shown: M13 gene-8 major coat protein (P8)
B35: libC phage-displayed peptide SEQ ID NO:43 (peptide)
chain: GLMPLLFFWV
modifications: not fully specified (N-terminus)
notes: as for B3
B36: libC phage-displayed peptide SEQ ID NO:45 (peptide)
chain: WVDSCPIFWV
modifications: not fully specified (N-terminus)
notes: as for B3
B37: hOmi_c1 (peptide)
peptide: Ac-SWTMFWV-OH
notes: synthetic peptide from libC; also called SWTMFWV

Target: T1, GST-Omi PDZ fusion protein
Experiment: competition ELISA
Procedure: (§1) Affinity Assays—The binding affinities of peptides for Omi PDZ were determined as IC₅₀ values using a previously described competition ELISA(18). The IC₅₀ value was defined as the concentration of peptide that blocked 50% of PDZ domain binding to immobilized peptide. Assay plates were prepared by immobilizing an amino-terminally biotinylated peptide (biotin-GWTMFWV) on maxisorp plates coated with NeuTravidin and blocked with BSA. A fixed concentration of GST-Omi PDZ fusion protein (20 nM) in PBS, 0.5% BSA, 0.1% Tween 20 (PBT buffer) was preincubated for 1 h with serial dilutions of peptide and then transferred to the assay plates. After 1 h incubation, the plates were washed with PBS, 0.05% Tween 20, incubated for 30 min with HRP/anti-GST antibody (1:10,000) in PBT buffer, washed again, and detected with 3,3′,5,5′-Tetramethyl-benzidine/H₂O₂ (TMB) peroxidase substrate.

Binder | fold lower affinity vs SWTMFWV (hOmi_c1) [fold] | binding result | fold increase of IC50 vs SWTMFWV (hOmi_c1) [fold] | fold lower affinity vs the optimized peptide derived from libC (hOmi_c1) [fold] | fold reduction of binding affinity vs … (hOmi_n1) [fold] | fold lower affinity vs … (hOmi_n1) [fold]
Ac-TMFWV-OH (also called TMFWV) [hOmi_c1_t2] | 15 |  |  |  |  | 
Ac-AWTMFWV-OH (also called AWTMFWV) [hOmi_c1_A7] |  | binds |  |  |  | 
Ac-SWTMFWA-OH (also called SWTMFWA) [hOmi_c1_A1] |  |  | 3 |  |  | 
B1 |  |  |  | 5 |  | 
B2 | 50 |  |  |  |  | 
H-HWWGGWLG-NH2 [hOmi_n1_t6] |  |  |  |  | 3 | 
H-SHWW-NH2 (also called SHWW; tetrapeptide (SHWW)) [hOmi_n1_t5] |  |  |  |  |  | 3
Ac-WTMFWV-OH (also called WTMFWV) [hOmi_c1_t1] |  | binds |  |  |  | 

Target: T1, GST-Omi PDZ fusion protein
Experiment: competition ELISA, immobilized biotin-GWTMFWV
Procedure: as §1

Binder | binding result
H-SHWWGG-NH2 (also called SHWWGG) [hOmi_n1_t3] | no binding

Target: T1, GST-Omi PDZ fusion protein
Experiment: phage ELISA on GST-Omi PDZ after three rounds of selection
Procedure: Selection for Omi PDZ peptides—Previously described procedures were used to isolate peptides that bound to a GST-Omi PDZ fusion, using libraries of random decapeptides fused to either the C terminus(18) or octapeptide fused to the N terminus(19) of the M13 gene-8 major coat protein, designated as libC or libN, respectively. After three rounds of selection, individual clones were grown in a 96-well format in 500 μL of 2YT broth supplemented with carbenicillin, kanamycin and KO7, and the culture supernatants were used directly in phage ELISAs(19) to detect peptides that bound specifically to Omi PDZ. Peptide sequences derived from positive clones were aligned and tabulated. A total of 95 positive colonies from libC and 89 from libN were analyzed. (see Table II). […] The sequences were selected after three rounds of sorting with IPTG induction. Hydrophobic residues (A, F, I, L, M, V, W, Y) are italicized and bolded, n is the number of siblings.

Binder | binding result
B3 | binds
B4 | binds
B5 | binds
B6 | binds
B7 | binds
B8 | binds
B9 | binds
B10 | binds
B11 | binds
B12 | binds
B13 | binds
B14 | binds
B15 | binds
B16 | binds
B17 | binds
B18 | binds
B19 | binds

Binder | binding result
B20 | binds
B21 | binds
B22 | binds
B23 | binds
B24 | binds
B25 | binds
B26 | binds
B27 | binds
B28 | binds
B29 | binds
B30 | binds
B31 | binds
B32 | binds
B33 | binds
B34 | binds
B35 | binds
B36 | binds

Target: T1, GST-Omi PDZ fusion protein
Experiment: competition ELISA, 20 nM GST-Omi PDZ, immobilized biotin-GWTMFWV as competitor
Procedure: as §1

Binder | IC50 [µM]
Ac-MFWV-OH (also called MFWV) [hOmi_c1_t3] | 24.1
H-SHWWGGWL-NH2 [hOmi_n1_t1] | 17.6
B37 | 3.3
Ac-SWTMFWA-OH (also called SWTMFWA) [hOmi_c1_A1] | 10.6
H-SHWWGGWLG-NH2 (synthetic peptide from libN) [hOmi_n1] | 21.6
B1 | 17.6
B2 | 162
H-SHWW-NH2 (also called SHWW; tetrapeptide (SHWW)) [hOmi_n1_t5] | 72.2
H-ATEFWWGVG-NH2 (synthetic peptide from libN) [hOmi_n4] | 32.4
H-SHWWGGW-NH2 (also called SHWWGGW) [hOmi_n1_t2] | 26
